This note sets out measurements from paper PMC10275869.

Holding throughout (assay): SEC; 100-200 μg of protein on a Superose 6 Increase 10/300GL column
(Size exclusion chromatography separates by hydrodynamic size, large species first.)

The target in experiment [1] is LayV F clamp2 (prefusion Langya virus fusion glycoprotein ectodomain stabilised with the clamp2 molecular clamp) (Langya virus).
In experiment [2] the target is unstabilised LayV F (ectodomain with C-Tag, without clamp2) (Langya virus).
For experiment [3], the target named is unstabilised MojV F (ectodomain with C-Tag, without clamp2) (Mòjiāng virus).

Substance “LayV F clamp2 (prefusion Langya virus fusion glycoprotein ectodomain stabilised with the clamp2 molecular clamp) (domain or fragment)” had a stoichiometry N in experiment [1] of 3. As to “unstabilised LayV F (ectodomain with C-Tag, without clamp2) (domain or fragment)”, the stoichiometry N in experiment [2] is 3.

In experiment [3], “unstabilised MojV F (ectodomain with C-Tag, without clamp2) (domain or fragment)” displayed a stoichiometry N of 3.

As usually defined, the stoichiometry N is the number of molecules, sites or subunits per partner or assembly.
